Data taken from publication PMC5585171.

Molecular target: Medicago truncatula L-histidinol dehydrogenase (Medicago truncatula)
Assay: SEC; HiLoad Superdex 200 16/60; 25 mM Hepes-NaOH pH 7.5, 100 mM KCl, 50 mM NaCl, 1 mM TCEP; data not shown

stoichiometry N: 2
Substance: Medicago truncatula L-histidinol dehydrogenase (enzyme)
